Measured values from patent US20200190192A1.

Biological target: cynomolgus PD-1 expressed on CHO cells (cynomolgus monkey)
Assay: cPD-1 binding titration (format not named; taken as cell binding)

Binder | Bmax | Kd
1353-G10 H1 HC IgG (antibody, V domains shown) VH: EVQLVQSGAEVKKPGASVKVSCKASGYTFDSYGISWVRQAPGQGLEWMGWISAYNGNTNYAQKLQGRVTMTTDTSTNTAYMELRSLRSDDTAVYYCARDVDYGTGSGYWGQGTLVTVSS VL: SYELTQPPSVSVSPGQTARITCSGDALPKQYAYWYQQKPGQAPVMVIYKDTERPSGIPERFSGSSSGTKVTLTISGVQAEDEADYYCQSADNSITYRVFGGGTKVTVL | 2960 | 0.3 nM
1353-G10 H1/vk1-39 IgG (antibody, V domains shown) VH: EVQLVQSGAEVKKPGASVKVSCKASGYTFDSYGISWVRQAPGQGLEWMGWISAYNGNTNYAQKLQGRVTMTTDTSTNTAYMELRSLRSDDTAVYYCARDVDYGTGSGYWGQGTLVTVSS VL: DIQLTQSPSSLSASVGDRVTITCSGDALPKQYAYWYQQKPGKAPKLLIYKDTERPSGVPSRFSGSSSGTKVTLTISSLQPEDFATYYCQSADNSITYRVFGGGTKVEIK | 2800 | 2.3 nM
